According to the supplement of paper PMC9233669:
Variants at the floor of the assay were thinned out.

Tests used:
[1] = system: biotinyl-Phe-oxazolone; experiment: self-aminoacylation, catalytic enhancement (BFO) (fold over background); higher = more active; k-Seq, kA / k0A0; sequences stand for … in GGGAAUGGAUCCACAUCUACGAAUUC…UUCACUGCAGACUUGACGAAGCUG
Method in brief: (§1)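 Working in 50 μL HEPES/NaCl/KCl/MgCl2/CaCl2 buffer with 5% acetonitrile at pH 6.9–7.0, mutagenized RNA pools (0.43 μM; 21-nt variable region) were reacted with 2–1250 μM of each biotinyl-aminoacyl-oxazolone for 90 minutes at room temperature. Streptavidin capture followed, with quantification by triplicate qPCR and Illumina sequencing. Catalytic enhancement is reported as median kA over the uncatalyzed rate, the low-activity peak of a bimodal Gaussian fit to the data.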

[2] = system: biotinyl-Ile-oxazolone; experiment: self-aminoacylation, catalytic enhancement (BIO) (fold over background); higher = more active; k-Seq, kA / k0A0; sequences stand for … in GGGAAUGGAUCCACAUCUACGAAUUC…UUCACUGCAGACUUGACGAAGCUG
Method in brief: as §1

[3] = system: biotinyl-Met-oxazolone; experiment: self-aminoacylation, catalytic enhancement (BMO) (fold over background); higher = more active; k-Seq, kA / k0A0; sequences stand for … in GGGAAUGGAUCCACAUCUACGAAUUC…UUCACUGCAGACUUGACGAAGCUG
Method in brief: as §1

[4] = system: biotinyl-Val-oxazolone; experiment: self-aminoacylation, catalytic enhancement (BVO) (fold over background); higher = more active; k-Seq, kA / k0A0; sequences stand for … in GGGAAUGGAUCCACAUCUACGAAUUC…UUCACUGCAGACUUGACGAAGCUG
Method in brief: as §1

[5] = system: biotinyl-Leu-oxazolone; experiment: self-aminoacylation, catalytic enhancement (BLO) (fold over background); higher = more active; k-Seq, kA / k0A0; sequences stand for … in GGGAAUGGAUCCACAUCUACGAAUUC…UUCACUGCAGACUUGACGAAGCUG
Method in brief: as §1

[6] = system: biotinyl-Trp-oxazolone; experiment: self-aminoacylation, catalytic enhancement (BWO) (fold over background); higher = more active; k-Seq, kA / k0A0; sequences stand for … in GGGAAUGGAUCCACAUCUACGAAUUC…UUCACUGCAGACUUGACGAAGCUG
Method in brief: as §1

Sequence | self-aminoacylation [1] | self-aminoacylation [2] | self-aminoacylation [3] | self-aminoacylation [4] | self-aminoacylation [5] | self-aminoacylation [6]
AUUACCCUUGUCAUCGGGUGA [Fam2.1 aminoacylation ribozyme variant] | 45.3 | 4.14 | 8.35 | 4.39 | 9.03 | 9.41
AUUAACCUGGUCAUUGAGUGA [Fam2.1 aminoacylation ribozyme variant] | 53.1 | 4.38 | 9.39 | 4.05 | 9.89 | 12
AUUCACCUAGAUCAUCGGGUU [Fam2.2 aminoacylation ribozyme variant] | 0.554 | 1.01 | 0.967 | 1.11 | 1.17 | 1.26
AUUCGCCUAUGUCAUCGGGUG [Fam2.2 aminoacylation ribozyme variant] | 30.7 | 3.35 | 5.1 | 3.16 | 6.54 | 4.65
AUUCACGUUGGUCAUCGGGUG [Fam2.2 aminoacylation ribozyme variant] | 121 | 6.91 | 12.5 | 8 | 12.2 | 10.1
ACUCAACUAGGUCAUCGGGUG [Fam2.2 aminoacylation ribozyme variant] | 48 | 5.56 | 5.62 | 4.88 | 6.97 | 5.38
AAGAGUGCUAAUAGUCGCAAG [Fam3.1 aminoacylation ribozyme variant] | 3.44 | 2.29 | 1.82 | 1.73 | 2.19 | 1.89
CCACACUUGCAGCAAUCGGUC [Fam1B.1 aminoacylation ribozyme variant] | 1.07 | 1.63 | 1.2 | 1.64 | 1.33 | 1.23
AUUCACCAACGUCAUCGGGUG [Fam2.2 aminoacylation ribozyme variant] | 74 | 5.28 | 8.41 | 5.26 | 11.8 | 7.38
CCCCACUUCAAGGAAUCGGUC [Fam1B.1 aminoacylation ribozyme variant] | 11.3 | 2.4 | 2.33 | 2.15 | 2.62 | 13
CACCACUUCAAGCAAUCGGUC [Fam1B.1 aminoacylation ribozyme variant] | 40.5 | 1.11 | 1.33 | 1.28 | 1.83 | 21.8
AUUACCCUGGACAUCGAGUGA [Fam2.1 aminoacylation ribozyme variant] | 19.6 | 2.52 | 5.32 | 2.79 | 5.18 | 5.97
CUACUUCAAACAAUCGGUUAG [Fam1A.1 aminoacylation ribozyme variant] | 2.89 | 0.706 | 0.591 | 0.614 | 0.493 | 1.46
AAGUUUGCAAAUAGUCGCAAC [Fam3.1 aminoacylation ribozyme variant] | 0.731 | 0.917 | 1.07 | 0.838 | 1.01 | 1.01
AUUACCCUGGACAACGAGUGA [Fam2.1 aminoacylation ribozyme variant] | 59.1 | 3.88 | 8.65 | 3.76 | 8.43 | 9.2
GCUCACCUAGGUCAUCGGGUG [Fam2.2 aminoacylation ribozyme variant] | 35.1 | 5.39 | 6.13 | 5.77 | 6.79 | 9.1
CUACACUUCACGCAAUCGGUC [Fam1B.1 aminoacylation ribozyme variant] | 0.68 | 0.801 | 0.777 | 0.888 | 0.758 | 0.895
CCACACUUCAAGCUAUCUGUC [Fam1B.1 aminoacylation ribozyme variant] | 0.636 | 0.468 | 0.284 | 0.612 | 0.362 | 0.371
AUUCACCUAGGUCUUGGGGUG [Fam2.2 aminoacylation ribozyme variant] | 77.3 | 5.73 | 11.2 | 6.44 | 13.8 | 9.73
AUUAUCCUGCUCAUCGAGUGA [Fam2.1 aminoacylation ribozyme variant] | 2.88 | 1.76 | 2.69 | 1.8 | 2.77 | 3.08
CCACACCUCACGCAAUCGGUC [Fam1B.1 aminoacylation ribozyme variant] | 1.34 | 1.84 | 1.27 | 1.99 | 1.58 | 2.13
AUUAACCAGGUCAUCGAGUGA [Fam2.1 aminoacylation ribozyme variant] | 22.2 | 3.17 | 5.17 | 2.8 | 5.32 | 6.86
AUUAACCUGUUCAUCGAGUGA [Fam2.1 aminoacylation ribozyme variant] | 15.8 | 2.4 | 4.16 | 2.4 | 4.93 | 5.29
CUACUUCAAACAAGCGGUCUG [Fam1A.1 aminoacylation ribozyme variant] | 0.819 | 0.933 | 0.822 | 0.871 | 0.825 | 0.693
CUACUUCAAACAAUCGGUUCG [Fam1A.1 aminoacylation ribozyme variant] | 2.97 | 0.687 | 0.615 | 0.767 | 0.63 | 0.98
AUUCACCUCGGUCAUGGGGUG [Fam2.2 aminoacylation ribozyme variant] | 28 | 2.57 | 3.94 | 2.96 | 4.31 | 4.7

Sequence | self-aminoacylation [1] | self-aminoacylation [2] | self-aminoacylation [3] | self-aminoacylation [4] | self-aminoacylation [5] | self-aminoacylation [6]
AUUCACCUAGGUAAUCGUGUG [Fam2.2 aminoacylation ribozyme variant] | 3.38 | 0.879 | 0.915 | 0.838 | 1.14 | 0.758
CCACACUUCUCGCAAUCGGUC [Fam1B.1 aminoacylation ribozyme variant] | 0.867 | 1.06 | 0.889 | 1.09 | 1.04 | 0.888
AUUACCUUUGUCAUCGAGUGA [Fam2.1 aminoacylation ribozyme variant] | 20 | 3.25 | 5.22 | 3.06 | 6.05 | 6.87
CUACUUGAAACAAUCGGUAUG [Fam1A.1 aminoacylation ribozyme variant] | 0.5 | 0.654 | 0.67 | 0.699 | 0.838 | 0.504
CCACGCUUCACGCAAUCGGUC [Fam1B.1 aminoacylation ribozyme variant] | 0.964 | 1.15 | 1.4 | 1.82 | 1.09 | 1.95
AUUCACCUCGGUCCUCGGGUG [Fam2.2 aminoacylation ribozyme variant] | 53.2 | 4.17 | 6.33 | 4.23 | 7.19 | 7.07
CUUACCCUGGUAAUCGAGUGA [Fam2.1 aminoacylation ribozyme variant] | 24.3 | 3.22 | 6.18 | 3.18 | 7.47 | 8.08
CUACUUCAAACAGUCGGUCUC [Fam1A.1 aminoacylation ribozyme variant] | 0.732 | 0.903 | 0.765 | 0.8 | 1.02 | 0.456
ACUACCCUGGUUAUCGAGUGA [Fam2.1 aminoacylation ribozyme variant] | 33.1 | 3.67 | 7.03 | 4.43 | 8.45 | 7.91
AUCCACCUAGGUCGUCGGGUG [Fam2.2 aminoacylation ribozyme variant] | 9.53 | 2.36 | 2.62 | 2.56 | 3.5 | 2.22
CCCCACAUCAAGCAAUCGGUC [Fam1B.1 aminoacylation ribozyme variant] | 3.1 | 1.67 | 1.22 | 1.5 | 1.63 | 2.47
AUACACCUAGGUCAUCGGGUC [Fam2.2 aminoacylation ribozyme variant] | 7.44 | 1.08 | 1.31 | 1.29 | 1.57 | 1.18
AAGUUUGCUACGAGUCGCAAG [Fam3.1 aminoacylation ribozyme variant] | 1.05 | 0.656 | 0.922 | 0.876 | 0.671 | 0.978
AGGUUGGCUAAUAGUCGCAAG [Fam3.1 aminoacylation ribozyme variant] | 2.19 | 1.74 | 1.97 | 1.7 | 1.88 | 2.29
AUUAUGCUGGUCAUCGAGUGA [Fam2.1 aminoacylation ribozyme variant] | 14.9 | 3.15 | 4.1 | 2.69 | 4.22 | 5.2
ACGUUCGCUAAUAGUCGCAAG [Fam3.1 aminoacylation ribozyme variant] | 1.62 | 1.84 | 1.24 | 1.91 | 1.96 | 2.21
CUAAUUUAAACAAUCGGUCUG [Fam1A.1 aminoacylation ribozyme variant] | 0.662 | 0.9 | 0.866 | 0.872 | 0.791 | 0.6
AUUACCCAGGUCAUCGAGUGA [Fam2.1 aminoacylation ribozyme variant] | 22.8 | 3.21 | 5.79 | 3.55 | 6.08 | 6.89
AUUCACCUAGUUCAUCUGGUG [Fam2.2 aminoacylation ribozyme variant] | 10.4 | 1.56 | 1.88 | 1.5 | 2.44 | 2.4
CUACACUCCAAGCAAUCGGUC [Fam1B.1 aminoacylation ribozyme variant] | 2.74 | 0.949 | 0.76 | 0.934 | 0.747 | 1.22
AAGUUUGCUAAUAGCCGAAAG [Fam3.1 aminoacylation ribozyme variant] | 1.6 | 1.09 | 0.766 | 0.677 | 1.03 | 1.28
UUUCACCUAGGUCAUCAGGUG [Fam2.2 aminoacylation ribozyme variant] | 1.36 | 1.58 | 1.79 | 1.7 | 1.52 | 1.52
AUUGCCCUGAUCAUCGAGUGA [Fam2.1 aminoacylation ribozyme variant] | 26.6 | 3.73 | 7.51 | 4.01 | 7.17 | 8.98
CAGUUUGCUAAUAGUCGGAAG [Fam3.1 aminoacylation ribozyme variant] | 3.05 | 1.27 | 1.26 | 1.35 | 1.11 | 1.43
CCACACUUCAAGCACGCGGUC [Fam1B.1 aminoacylation ribozyme variant] | 0.928 | 1.76 | 2.3 | 2.1 | 1.54 | 1.91
